Measurements: PMC9212912 (Structure (London, England : 1993), 2022)
Ends that are not written are not given here.

Columns and labels:
[1] = target: BRD4 bromodomain 1 (residues 43–180) (human, UniProt O60885 43-180); experiment: NMR titration
BRD4 ET domain (600–700) [2] = target: T1, BRD4 ET domain (600–700) (human, UniProt O60885 600-700); experiment: NMR titration
BRD4 ET domain (600–700) [3] = target: T1, BRD4 ET domain (600–700); experiment: MST

| Binder | Kd [1] [µM] | also measured |
| --- | --- | --- |
| SLVK(Ac)PS [monoacetylated SARS-CoV-2 E^K53ac peptide (aa 50–55 of SARS-CoV-2 E)] | > 1000 | – |
| KPSFYVYSRVKNLNSSRVPD [SARS-CoV-2 E^53−72 peptide (aa 53–72 of SARS-CoV-2 E)] | – | binding result (BRD4 ET domain (600–700) [2]): binds |
| {FAM}-SFYVYSRVKNLN [FAM-SARS-CoV-2 E^55–66 peptide] | – | Kd (BRD4 ET domain (600–700) [3]): 50 µM |
| SRVK(Ac)NLNSS [monoacetylated SARS-CoV-2 E^K63ac peptide (aa 60–68 of SARS-CoV-2 E)] | 660 | – |
